B1: Human calcium-sensing receptor CaSR (1-870) with C-terminal Flag tag (receptor, UniProt P41180-1 20-870, looked up)
chain: YGPDQRAQKKGDIILGGLFPIHFGVAAKDQDLKSRPESVECIRYNFRGFRWLQAMIFAIEEINSSPALLPNLTLGYRIFDTCNTVSKALEATLSFVAQNKIDSLNLDEFCNCSEHIPSTIAVVGATGSGVSTAVANLLGLFYIPQVSYASSSRLLSNKNQFKSFLRTIPNDEHQATAMADIIEYFRWNWVGTIAADDDYGRPGIEKFREEAEERDICIDFSELISQYSDEEEIQHVVEVIQNSTAKVIVVFSSGPDLEPLIKEIVRRNITGKIWLASEAWASSSLIAMPQYFHVVGGTIGFALKAGQIPGFREFLKKVHPRKSVHNGFAKEFWEETFNCHLQEGAKGPLPVDTFLRGHEESGDRFSNSSTAFRPLCTGDENISSVETPYIDYTHLRISYNVYLAVYSIAHALQDIYTCLPGRGLFTNGSCADIKKVEAWQVLKHLRHLNFTNNMGEQVTFDECGDLVGNYSIINWHLSPEDGSIVFKEVGYYNVYAKKGERLFINEEKILWSGFSREVPFSNCSRDCLAGTRKGIIEGEPTCCFECVECPDGEYSDETDASACNKCPDDFWSNENHTSCIAKEIEFLSWTEPFGIALTLFAVLGIFLTAFVLGVFIKFRNTPIVKATNRELSYLLLFSLLCCFSSSLFFIGEPQDWTCRLRQPAFGISFVLCISCILVKTNRVLLVFEAKIPTSFHRKWWGLNLQFLLVFLCTFMQIVICVIWLYTAPPSSYRNQELEDEIIFITCHEGSLMALGFLIGYTCLLAAICFFFAFKSRKLPENFNEAKFITFSMLIFFIVWISFIPAYASTYGKFVSAVEVIAILAASFGLLACIFFNKIYIILFKPSRNTIE
notes: signal peptide in the construct; human calcium-sensing receptor (CaSR), residues 1-870, cDNA NM_000388.4; Flag printed as DYKDDDD; Cloned into a modified pEG BacMam vector; also called full-length CaSR; hCaSR; source: HEK293 GnTI- cells infected with baculovirus (BacMam), purified (anti-Flag M2, Mono Q, Superose 6) in GDN/CHS
B2: NB-2D11 (camel nanobody) (VHH)
VHH: QVQLQESGGGSVQAGGSLRLSCAASGFPISTYDMGWFRQAPGKEREGVVGITDSFSIKYEDSVKGRFTISRDNAKNALYLQMNSLKPEDTGMYYCAAGDARWSLLLRAEQYNYWGQGTQVTVSS
notes: Cloned in pMECS with a PelB signal peptide; HA tag followed by 6x histidine tag at the C-terminus; Isolated from a phage display library of camels immunised with human CaSR; also called NB-D211; source: E. coli TOP10F' periplasm, purified (Ni-NTA, Superdex 75)

Tests used:
[1] = target: the molecule itself; test: cryo-EM structure; inactive state: CaSR in GDN/CHS micelles with NPS-2143 (NAM), 1 mM CaCl2 and a 1.2 molar excess of NB-2D11
[2] = target: T1, CaSR ECD (extracellular domain of human calcium-sensing receptor) (Homo sapiens, UniProt P41180); test: SPR; Biacore T200; CaSR ECD coupled to the chip by amino-carboxyl coupling; nanobody flowed at a series of concentrations (30 ul/min, association 90 s, dissociation 220 s); 25 C; 20 mM HEPES pH 7.4, 150 mM NaCl, 0.05% Tween 20; conditions: both partners purified
T1 construct: human calcium-sensing receptor (CaSR), extracellular domain (VFT domain and cysteine rich domain); crystal structures of CaSR ECD (PDB 5K5T, 5K5S; Geng et al., 2016) are cited but not tied to this construct
T1 sequence (P41180 whole entry, looked up, the tested form may be a part): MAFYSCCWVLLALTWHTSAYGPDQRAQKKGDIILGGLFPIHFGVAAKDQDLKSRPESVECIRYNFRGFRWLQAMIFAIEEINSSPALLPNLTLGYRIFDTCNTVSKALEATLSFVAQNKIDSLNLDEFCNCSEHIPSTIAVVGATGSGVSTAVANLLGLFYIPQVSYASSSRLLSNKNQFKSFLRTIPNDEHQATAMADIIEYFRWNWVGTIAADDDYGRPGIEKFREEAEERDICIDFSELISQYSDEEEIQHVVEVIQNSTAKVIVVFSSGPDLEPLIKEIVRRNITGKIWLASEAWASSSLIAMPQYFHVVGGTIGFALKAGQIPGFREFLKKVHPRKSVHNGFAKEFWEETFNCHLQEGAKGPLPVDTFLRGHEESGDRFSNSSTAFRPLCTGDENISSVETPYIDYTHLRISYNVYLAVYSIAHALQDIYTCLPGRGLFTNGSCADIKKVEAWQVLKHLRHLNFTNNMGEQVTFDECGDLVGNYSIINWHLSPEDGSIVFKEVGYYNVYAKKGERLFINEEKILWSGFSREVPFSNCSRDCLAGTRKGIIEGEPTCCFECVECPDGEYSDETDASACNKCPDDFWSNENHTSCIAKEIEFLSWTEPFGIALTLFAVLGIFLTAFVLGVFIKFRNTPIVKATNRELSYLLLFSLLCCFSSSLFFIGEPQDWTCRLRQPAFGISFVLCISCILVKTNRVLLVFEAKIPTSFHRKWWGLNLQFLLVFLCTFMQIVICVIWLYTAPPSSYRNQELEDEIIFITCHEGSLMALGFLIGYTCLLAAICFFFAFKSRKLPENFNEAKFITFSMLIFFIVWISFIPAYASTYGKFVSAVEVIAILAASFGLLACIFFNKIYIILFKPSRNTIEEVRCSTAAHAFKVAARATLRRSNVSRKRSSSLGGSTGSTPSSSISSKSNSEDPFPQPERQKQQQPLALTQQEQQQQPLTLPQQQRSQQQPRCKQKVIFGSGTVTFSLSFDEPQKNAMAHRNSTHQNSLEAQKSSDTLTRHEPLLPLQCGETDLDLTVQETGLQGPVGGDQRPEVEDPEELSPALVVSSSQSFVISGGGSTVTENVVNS

Binder | binding result [1] | Kd [2]
B1 | binds | –
B2 | – | 0.24 nM
